{"source": "patent US20240352130A1", "about": "(CHILDREN S HOSPITAL OF PHILADELPHIA, published 2024)", "binders": {"B1": {"name": "Clone 9 (RU-201-9) scFv (scFv)", "scFv": "SRNGGDGQSVLTQPPSVSVSPGQTASITCSGDSLGYKYACWYQQKPGQSPVLVIYQDSKRPSGIPERFSGSNSGNTATLTISGTQAMDEADYYCQAWDSLGVNTVVFGTGTKVTVSSQTGGSGGGGSGGGGSGGGGSEVQLLESGGGLVQPGGSLRLSCAASGFTFNYYAMSWVRQAPGKGLEWVSAISGYGGSTYYADSVKGRFTISRDNSKNTLYLQMNSLRAEDTAVYYCAKASEAYSAFDIWGQGTMVTVSSS"}, "B2": {"name": "Clone 1114 (RU201-1114) scFv (scFv)", "scFv": "B1 scFv with S33K, Y36D, L100I, V102N, N103M, N167D, A239Y, Y240T, S241N, T250I"}, "B3": {"name": "Clone 10 (RU141-10) scFv (scFv)", "scFv": "SRNGGDGQSVLTQPPSVSVSPGQTASITCSGDSLGNKYACWYQQKPGQSPVLVIYQDSKRPSGIPERFSGSNSGNTATLTISGTQAMDEADYYCQAWDSSRGYTVVFGTGTKVTVSSQTGGSGGGGSGGGGSGGGGSEVQLLESGGGLVQPGGSLRLSCAASGFTFDSYAMSWVRQAPGKGLEWVSAISGYGGSTYYADSVKGRFTISRDNSKNTLYLQMNSLRAEDTAVYYCAKYTYFLDAFDIWGQGTMVTVSSS"}, "B4": {"name": "Clone 1113 (RU-201-1113) scFv (scFv)", "scFv": "SRNGGDGQSVLTQPPSVSAAPGQKVTISCSGSSSNIGNNYVSWYQQLPGTAPKLLIYDNNKRPSGIPDRFSGSKSGTSATLGITGLQTGDEADYYCGTWDHMGRNTVVFGTGTKVTVSSQTGGSGGGGSGGGGSGGGGSEVQLLESGGGLVQPGGSLRLSCAASGFTFSDYAMSWVRQAPGKGLEWVSAISGTGGSTYYADSVKGRFTISRDNSKNTLYLQMNSLRAEDTAVYYCAKEFSVVNSAAFDIWGQGTMVTVSSS"}}, "key": {"[1]": {"target": "T1, PHOX2B (43-51) A*24:02 MHC complex (human)", "T1 construct": "also called PHOX2B (43-51) complex; PHOX2B target pMHC", "test": "BLI (BLItz), biotinylated scFv on streptavidin sensor, soluble pMHC 200 nM", "protocol": "(§1) Binding kinetics. Affinity measurements were performed using a BLItz™ system (ForteBio, USA) and analyzed using the BLItz Pro™ software."}, "[2]": {"target": "T2, … HLA-A*24:02 complex (human)", "T2 construct": "also called Unrelated peptide 2", "test": "bead-based binding, scFv on streptavidin beads, fluorescent pMHC"}, "[3]": {"target": "T3, … HLA-A*24:02 complex (human)", "T3 construct": "also called Unrelated peptide 4", "test": "bead-based binding, scFv on streptavidin beads, fluorescent pMHC"}, "[4]": {"target": "T4, … HLA-A*24:02 complex (human)", "T4 construct": "also called Unrelated peptide 1", "test": "bead-based binding, scFv on streptavidin beads, fluorescent pMHC"}, "[5]": {"target": "T5, … HLA-A*24:02 complex (human)", "T5 construct": "also called Unrelated peptide 3", "test": "bead-based binding, scFv on streptavidin beads, fluorescent pMHC"}, "[6]": {"target": "T2, … HLA-A*24:02 complex", "test": "bead-based binding, scFv on streptavidin beads, fluorescent pMHC", "remark": "listed apart in the source"}, "[7]": {"target": "T3, … HLA-A*24:02 complex", "test": "bead-based binding, scFv on streptavidin beads, fluorescent pMHC", "remark": "listed apart in the source"}, "[8]": {"target": "T4, … HLA-A*24:02 complex", "test": "bead-based binding, scFv on streptavidin beads, fluorescent pMHC", "remark": "listed apart in the source"}, "[9]": {"target": "T5, … HLA-A*24:02 complex", "test": "bead-based binding, scFv on streptavidin beads, fluorescent pMHC", "remark": "listed apart in the source"}, "[10]": {"target": "T1, PHOX2B (43-51) A*24:02 MHC complex", "test": "BLI (BLItz), biotinylated scFv on streptavidin sensor, soluble pMHC 200 nM", "remark": "listed apart in the source", "protocol": "as §1"}, "[11]": {"target": "T1, PHOX2B (43-51) A*24:02 MHC complex", "test": "BLI (BLItz), biotinylated scFv on a streptavidin sensor, soluble pMHC in solution", "protocol": "as §1"}, "[12]": {"target": "T2, … HLA-A*24:02 complex", "test": "bead-based steady-state binding assay (FIG. 3A)", "protocol": "(§2) Steady-state binding assay. An equilibrium binding assay to target pMHCs was also established using MyOne Streptavidin C1 Dynabeads. Briefly, 50 micrograms of Streptavidin C1 Dynabeads were incubated with excess biotinylated scFv before being blocked with free biotin and washed in PBS. […] Binding was normalized to beads without scFv and with unrelated control MHC complex."}, "[13]": {"target": "T3, … HLA-A*24:02 complex", "test": "bead-based steady-state binding assay (FIG. 3A)", "protocol": "as §2"}, "[14]": {"target": "T4, … HLA-A*24:02 complex", "test": "bead-based steady-state binding assay (FIG. 3A)", "protocol": "as §2"}, "[15]": {"target": "T5, … HLA-A*24:02 complex", "test": "bead-based steady-state binding assay (FIG. 3A)", "protocol": "as §2"}, "[16]": {"target": "T1, PHOX2B (43-51) A*24:02 MHC complex", "test": "BLI (BLItz), biotinylated scFv on streptavidin sensor, soluble pMHC 200 nM", "remark": "listed apart in the source", "protocol": "as §1"}, "[17]": {"target": "T2, … HLA-A*24:02 complex", "test": "bead-based binding, scFv on streptavidin beads, fluorescent pMHC", "remark": "listed apart in the source"}, "[18]": {"target": "T3, … HLA-A*24:02 complex", "test": "bead-based binding, scFv on streptavidin beads, fluorescent pMHC", "remark": "listed apart in the source"}, "[19]": {"target": "T4, … HLA-A*24:02 complex", "test": "bead-based binding, scFv on streptavidin beads, fluorescent pMHC", "remark": "listed apart in the source"}, "[20]": {"target": "T5, … HLA-A*24:02 complex", "test": "bead-based binding, scFv on streptavidin beads, fluorescent pMHC", "remark": "listed apart in the source"}, "[21]": {"target": "T1, PHOX2B (43-51) A*24:02 MHC complex", "test": "BLI (BLItz), biotinylated scFv on streptavidin sensor, soluble pMHC 200 nM", "remark": "listed apart in the source", "protocol": "as §1"}}, "note": "Substitutions are numbered along the chain they refer to. Where two headings read alike, the source gives them in different places."}
{"binder": "B1", "values": [{"measurement": "Kd", "setting": "[1]", "value": 100, "unit": "nM"}, {"measurement": "binding result", "setting": "[2]", "value": "no binding (tested: 3.5 nM)"}, {"measurement": "binding result", "setting": "[3]", "value": "no binding (tested: 3.5 nM)"}, {"measurement": "binding result", "setting": "[4]", "value": "no binding (tested: 3.5 nM)"}, {"measurement": "binding result", "setting": "[5]", "value": "no binding (tested: 3.5 nM)"}]}
{"binder": "B2", "values": [{"measurement": "binding result", "setting": "[6]", "value": "no binding (tested: 3.5 nM)"}, {"measurement": "binding result", "setting": "[7]", "value": "no binding (tested: 3.5 nM)"}, {"measurement": "binding result", "setting": "[8]", "value": "no binding (tested: 3.5 nM)"}, {"measurement": "binding result", "setting": "[9]", "value": "no binding (tested: 3.5 nM)"}, {"measurement": "Kd", "setting": "[10]", "value": 270, "unit": "nM"}]}
{"binder": "B3", "values": [{"measurement": "koff", "setting": "[11]", "value": 0.00076, "unit": "s⁻¹"}, {"measurement": "binding result", "setting": "[12]", "value": "no binding (tested: 3.5 nM pMHC)"}, {"measurement": "binding result", "setting": "[13]", "value": "no binding (tested: 3.5 nM pMHC)"}, {"measurement": "binding result", "setting": "[14]", "value": "no binding (tested: 3.5 nM pMHC)"}, {"measurement": "binding result", "setting": "[15]", "value": "no binding (tested: 3.5 nM pMHC)"}, {"measurement": "Kd", "setting": "[16]", "value": 10, "unit": "nM"}]}
{"binder": "B4", "values": [{"measurement": "binding result", "setting": "[17]", "value": "no binding (tested: 3.5 nM)"}, {"measurement": "binding result", "setting": "[18]", "value": "no binding (tested: 3.5 nM)"}, {"measurement": "binding result", "setting": "[19]", "value": "no binding (tested: 3.5 nM)"}, {"measurement": "binding result", "setting": "[20]", "value": "no binding (tested: 3.5 nM)"}, {"measurement": "Kd", "setting": "[21]", "value": 9, "unit": "nM"}]}
